Read-outs that look alike come from different tables or passages of the source. Each block holds one binder with its values, some of them ahead of it.
Columns and labels:
human CD25 [1] = molecular target: T1, human CD25 (human, UniProt P01589 22-272); experiment: flow cytometry, SU-DHL-1 cells
T1 construct: whole, on cells; Always presented on cells; also called huCD25; IL2Rα
T1 sequence (looked up): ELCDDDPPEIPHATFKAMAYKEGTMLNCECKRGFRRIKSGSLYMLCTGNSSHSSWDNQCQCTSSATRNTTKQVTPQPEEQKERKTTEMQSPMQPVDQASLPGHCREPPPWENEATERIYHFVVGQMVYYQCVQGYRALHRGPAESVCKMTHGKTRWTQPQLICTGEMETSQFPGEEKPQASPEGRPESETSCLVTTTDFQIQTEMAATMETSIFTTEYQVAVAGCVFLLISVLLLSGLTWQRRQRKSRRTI
Protocol: (§1) Briefly, the CHOK1-huCD25 cells and HEK293-cynoCD25 cells were digested, the SU-DHL-1 cells, Karpas299 cells, Treg cells and Teff cells were collected, and the cells were resuspended in PBS containing 2% BSA. The cells were adjusted to a cell density of 1×10⁶ cells/mL, respectively. […] The cells were incubated at 4° C. for 1 hour in the dark. After the incubation, the cells were rinsed twice by adding pre-chilled PBS containing 2% BSA at 100 μL/well, and centrifuged at 500 g at 4° C. for 5 minutes, and the supernatant was discarded. […] The cells were washed twice by adding pre-chilled PBS containing 2% BSA at 100 μL/well, and centrifuged at 500 g at 4° C. for 5 minutes, and the supernatant was discarded. Finally, the cells were resuspended in pre-chilled PBS containing 2% BSA at 200 μL/well, and the fluorescence signal values were read using a BD CantoII flow cytometer.

human CD25 [2] = molecular target: T1, human CD25; experiment: flow cytometry, Karpas299 cells
Protocol: (§2) This example was intended to study the in-vitro binding activity of H2L2 monoclonal antibodies against human CD25 to human/cynomolgus monkey CD25. […] Briefly, the CHOK1-huCD25 cells and HEK293-cynoCD25 cells were digested, the SU-DHL-1 cells, Karpas299 cells, Treg cells and Teff cells were collected, and the cells were resuspended in PBS containing 2% BSA. The cells were adjusted to a cell density of 1×10⁶ cells/mL, respectively. […] The cells were incubated at 4° C. for 1 hour in the dark. After the incubation, the cells were rinsed twice by adding pre-chilled PBS containing 2% BSA at 100 μL/well, and centrifuged at 500 g at 4° C. for 5 minutes, and the supernatant was discarded. […] The cells were washed twice by adding pre-chilled PBS containing 2% BSA at 100 μL/well, and centrifuged at 500 g at 4° C. for 5 minutes, and the supernatant was discarded. Finally, the cells were resuspended in pre-chilled PBS containing 2% BSA at 200 μL/well, and the fluorescence signal values were read using a BD CantoII flow cytometer.

human CD25 [3] = molecular target: T1, human CD25; experiment: flow cytometry, Karpas299 cells; remark: listed apart in the source
Protocol: as §2

human CD25 [4] = molecular target: T1, human CD25; experiment: flow cytometry, CHOK1-huCD25 cells
Protocol: as §1

human CD25 [5] = molecular target: T1, human CD25; experiment: flow cytometry, Karpas299 cells; remark: listed apart in the source
Protocol: as §2

human CD25 [6] = molecular target: T1, human CD25; experiment: flow cytometry, Karpas299 cells; remark: listed apart in the source
cynomolgus monkey CD25 [7] = molecular target: T2, cynomolgus monkey CD25 (cynomolgus monkey, UniProt H6WS54 22-272); experiment: flow cytometry, HEK293-cynoCD25 cells
T2 construct: whole, on cells; also called cynoCD25
T2 sequence: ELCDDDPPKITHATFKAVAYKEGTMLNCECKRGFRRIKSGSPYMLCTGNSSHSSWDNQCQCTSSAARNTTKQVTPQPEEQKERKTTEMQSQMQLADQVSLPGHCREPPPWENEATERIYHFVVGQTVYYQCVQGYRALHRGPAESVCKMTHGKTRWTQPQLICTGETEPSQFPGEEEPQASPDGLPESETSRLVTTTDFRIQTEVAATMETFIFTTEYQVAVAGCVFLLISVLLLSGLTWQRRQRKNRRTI
Protocol: as §1

human CD25 [8] = molecular target: T1, human CD25; experiment: flow cytometry, SU-DHL-1 cells; remark: listed apart in the source
Protocol: as §1

human CD25 [9] = molecular target: T1, human CD25; experiment: flow cytometry, SU-DHL-1 cells; remark: listed apart in the source
Protocol: as §1

human CD25 [10] = molecular target: T1, human CD25; experiment: flow cytometry, Karpas299 cells; remark: listed apart in the source
Protocol: as §1

human CD25 [11] = molecular target: T1, human CD25; experiment: flow cytometry, SU-DHL-1 cells; remark: listed apart in the source
Protocol: as §1

human CD25 [12] = molecular target: T1, human CD25; experiment: flow cytometry, SU-DHL-1 cells; remark: listed apart in the source
Protocol: as §1

cynomolgus monkey CD25 [13] = molecular target: T2, cynomolgus monkey CD25; experiment: flow cytometry, HEK293-cynoCD25 cells; remark: listed apart in the source
Protocol: as §1

cynomolgus monkey CD25 [14] = molecular target: T2, cynomolgus monkey CD25; experiment: flow cytometry, HEK293-cynoCD25 cells; remark: listed apart in the source
Protocol: as §2

human CD25 [15] = molecular target: T1, human CD25; experiment: flow cytometry, SU-DHL-1 cells; remark: listed apart in the source
Protocol: as §1

human CD25 [16] = molecular target: T1, human CD25; experiment: flow cytometry, SU-DHL-1 cells; remark: listed apart in the source
Protocol: as §1

human CD25 [17] = molecular target: T1, human CD25; experiment: flow cytometry, CHOK1-huCD25 cells; remark: listed apart in the source
Protocol: as §2

cynomolgus monkey CD25 [18] = molecular target: T2, cynomolgus monkey CD25; experiment: flow cytometry, HEK293-cynoCD25 cells; remark: listed apart in the source
Protocol: as §2

human CD25 [19] = molecular target: T1, human CD25; experiment: flow cytometry, SU-DHL-1 cells; remark: listed apart in the source
Protocol: as §1

human CD25 [20] = molecular target: T1, human CD25; experiment: flow cytometry, SU-DHL-1 cells; remark: listed apart in the source
Protocol: as §1

cynomolgus monkey CD25 [21] = molecular target: T2, cynomolgus monkey CD25; experiment: flow cytometry, HEK293-cynoCD25 cells; remark: listed apart in the source
Protocol: as §1

human CD25 [22] = molecular target: T1, human CD25; experiment: flow cytometry, Karpas299 cells; remark: listed apart in the source
cynomolgus monkey CD25 [23] = molecular target: T2, cynomolgus monkey CD25; experiment: flow cytometry, HEK293-cynoCD25 cells; remark: listed apart in the source
Protocol: as §1

human CD25 [24] = molecular target: T1, human CD25; experiment: flow cytometry, Karpas299 cells; remark: listed apart in the source
Protocol: as §1

human CD25 [25] = molecular target: T1, human CD25; experiment: flow cytometry, Karpas299 cells; remark: listed apart in the source
Protocol: as §2

human CD25 [26] = molecular target: T1, human CD25; experiment: flow cytometry, Karpas299 cells; remark: listed apart in the source

EC50 (human CD25 [1]): 1.4 nM
Maximum MFI (human CD25 [1]): 30700 MFI
EC50 (human CD25 [2]): 5 nM
EC50 (human CD25 [3]): 3.41 nM
EC50 (human CD25 [4]): 40 nM
Maximum MFI (human CD25 [4]): 2660 MFI
EC50 (human CD25 [5]): 11.8 nM
EC50 (human CD25 [6]): 30 nM
Maximum MFI (human CD25 [6]): 11800 MFI
EC50 (cynomolgus monkey CD25 [7]): 80.8 nM
Maximum MFI (cynomolgus monkey CD25 [7]): 8590 MFI
EC50 (human CD25 [8]): 1.28 nM
Maximum MFI (human CD25 [8]): 29700 MFI
EC50 (human CD25 [9]): 3.87 nM
Maximum MFI (human CD25 [9]): 32900 MFI
EC50 (human CD25 [10]): 30 nM
Maximum MFI (human CD25 [10]): 11800 MFI
EC50 (human CD25 [11]): 1.35 nM
EC50 (human CD25 [12]): 1.28 nM
EC50 (cynomolgus monkey CD25 [13]): 4.33 nM
Maximum MFI (cynomolgus monkey CD25 [13]): 125000 MFI
EC50 (cynomolgus monkey CD25 [14]): 6.75 nM
EC50 (human CD25 [15]): 3.87 nM
Maximum MFI (human CD25 [15]): 32900 MFI
EC50 (human CD25 [16]): 1.57 nM
Maximum MFI (human CD25 [16]): 28000 MFI
EC50 (human CD25 [17]): 45.8 nM
EC50 (cynomolgus monkey CD25 [18]): 80.8 nM
EC50 (human CD25 [19]): 0.95 nM
EC50 (human CD25 [20]): 1.29 nM
EC50 (cynomolgus monkey CD25 [21]): 40 nM
Maximum MFI (cynomolgus monkey CD25 [21]): 2660 MFI
EC50 (human CD25 [22]): 5 nM
Maximum MFI (human CD25 [22]): 9560 MFI
EC50 (cynomolgus monkey CD25 [23]): 20.9 nM
Maximum MFI (cynomolgus monkey CD25 [23]): 89700 MFI
EC50 (human CD25 [24]): 14.3 nM
Maximum MFI (human CD25 [24]): 20900 MFI
EC50 (human CD25 [25]): 2.22 nM
EC50 (human CD25 [26]): 5 nM
Maximum MFI (human CD25 [26]): 10100 MFI
B1: RG6292 (antibody, human IgG1, kappa, V domains shown)
VH: QVQLVQSGAEVKKPGSSVKVSCKASGGTFSSLAISWVRQAPGQGLEWMGGIIPIFGTANYAQKFQGRVTITADESTSTAYMELSSLRSEDTAVYYCARGGSVSGTLVDFDIWGQGTMVTVSS
VL: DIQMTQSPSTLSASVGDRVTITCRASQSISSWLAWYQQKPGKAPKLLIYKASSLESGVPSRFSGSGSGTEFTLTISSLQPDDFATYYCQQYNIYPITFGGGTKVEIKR
notes: also called PR004639; PR004639AF

EC50 (human CD25 [2]): 20 nM
EC50 (human CD25 [12]): 0.85 nM
B3: PR008015 (antibody, human IgG1, kappa, V domains shown)
VH: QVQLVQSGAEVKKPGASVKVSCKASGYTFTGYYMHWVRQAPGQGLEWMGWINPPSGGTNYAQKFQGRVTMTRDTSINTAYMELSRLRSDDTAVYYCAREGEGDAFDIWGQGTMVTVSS
VL: DFQMTQSPSTLSASVGDRVTITCRASQSISSWLAWYQQKPGKAPKLLIYEASSLKSGVPSRFSGSESGTEFTLTISSLQPDDFATYYCHQYMSYSTFGQGTKVEIKR
notes: PTM variant of PR006931 (VH:N54P, S60Y); human IgG1

Second part, the binder before the results:

B2: PR006110 (antibody, V domains shown)
VH: QVQLQESGPGLVKPSGTLSLTCAVSGGSISSSNYWSWVRQPPGKGLEWIGEIYHSGSTNYNPSLKSRVTISLDKSKNQFSLKLSSVTAADTAVYYCARDRNYGSGNYPHYYHYYGMDVWGQGTTVTVSS
VL: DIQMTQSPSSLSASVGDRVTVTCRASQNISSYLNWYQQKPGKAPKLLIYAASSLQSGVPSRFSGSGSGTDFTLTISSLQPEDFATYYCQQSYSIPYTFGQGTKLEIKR
notes: Fully human recombinant IgG1, kappa; also called 307B8G6
EC50 (human CD25 [5]): 1.73 nM
EC50 (human CD25 [20]): 1.95 nM

B4: PR005497 (antibody, human IgG1, kappa, V domains shown)
VH: QVQLQQSGPGLVKPSQTLSLTCAISGDSVSNNNAAWNWIRQSPSRGLEWLGRTHYRSDRSKWYNDYAVSVKSRITINSDTFKNQFSLQLNPVTPEDTAVYYCARDWDHDAFDIWGQGTMVTVSS
VL: DIQMTQSPSTLSASVGDRVTITCRASQSISGWLAWYQQKPGKAPKLLIYKASSLETGVPSRFSGSGSGTEFTLTISSLQPDDFATYYCLQYNGYSTFGGGTKVEIKR
notes: Fully human recombinant IgG1, kappa; also called 245E10F1
EC50 (human CD25 [11]): 2.4 nM
EC50 (cynomolgus monkey CD25 [14]): 6.4 nM
EC50 (human CD25 [17]): 2.73 nM
EC50 (human CD25 [25]): 2.81 nM

From patent US20250154268A1 (NONA BIOSCIENCES SUZHOU, published 2025)
